From patent publication US20090214495A1 (published 2009)

Biological target: T1, VEGFR-3 expressed in primary human osteoblasts (human, UniProt P35916 25-1363)
T1 construct: whole, on cells; Endogenous receptor of the cells; also called vascular endothelial growth factor receptor-3
Assay: receptor auto-phosphorylation in primary human osteoblasts treated with 25 ng/ml VEGF-D
Method: Moreover osteoblasts were treated with VEGF-D and the whole cell lisates were immunoprecipitated with an antibody recognizing VEGFR-3 C-terminus (Santa Cruz Biotechnology) and immunoblotted with anti-phosphotyrosine antibodies (Santa Cruz Biotechnology).
Cells were stimulated for 30 min with 25 ng/ml VEGF-D at 37° C., washed with ice-cold PBS containing 0.1 mM Na₃VO₄, and lysed in 1 ml of lysis buffer (50 mM Hepes, pH 7.4, 150 mM NaCl, 1% Triton-X 100, 1.5 mM MgCl₂, 1 mM EGTA, 10 mM NaH₂PO₄, 100 mM NaF, 10 mM DTT, 1 mM Na₃VO₄, protease inhibitors, Sigma Chemical). Cells lysates were incubated on ice for 10 min, centrifuged at 10,000×g for 15 min, and the supernatants were incubated with anti-VEGFR-3 antibodies.

T1 sequence (P35916 25-1363): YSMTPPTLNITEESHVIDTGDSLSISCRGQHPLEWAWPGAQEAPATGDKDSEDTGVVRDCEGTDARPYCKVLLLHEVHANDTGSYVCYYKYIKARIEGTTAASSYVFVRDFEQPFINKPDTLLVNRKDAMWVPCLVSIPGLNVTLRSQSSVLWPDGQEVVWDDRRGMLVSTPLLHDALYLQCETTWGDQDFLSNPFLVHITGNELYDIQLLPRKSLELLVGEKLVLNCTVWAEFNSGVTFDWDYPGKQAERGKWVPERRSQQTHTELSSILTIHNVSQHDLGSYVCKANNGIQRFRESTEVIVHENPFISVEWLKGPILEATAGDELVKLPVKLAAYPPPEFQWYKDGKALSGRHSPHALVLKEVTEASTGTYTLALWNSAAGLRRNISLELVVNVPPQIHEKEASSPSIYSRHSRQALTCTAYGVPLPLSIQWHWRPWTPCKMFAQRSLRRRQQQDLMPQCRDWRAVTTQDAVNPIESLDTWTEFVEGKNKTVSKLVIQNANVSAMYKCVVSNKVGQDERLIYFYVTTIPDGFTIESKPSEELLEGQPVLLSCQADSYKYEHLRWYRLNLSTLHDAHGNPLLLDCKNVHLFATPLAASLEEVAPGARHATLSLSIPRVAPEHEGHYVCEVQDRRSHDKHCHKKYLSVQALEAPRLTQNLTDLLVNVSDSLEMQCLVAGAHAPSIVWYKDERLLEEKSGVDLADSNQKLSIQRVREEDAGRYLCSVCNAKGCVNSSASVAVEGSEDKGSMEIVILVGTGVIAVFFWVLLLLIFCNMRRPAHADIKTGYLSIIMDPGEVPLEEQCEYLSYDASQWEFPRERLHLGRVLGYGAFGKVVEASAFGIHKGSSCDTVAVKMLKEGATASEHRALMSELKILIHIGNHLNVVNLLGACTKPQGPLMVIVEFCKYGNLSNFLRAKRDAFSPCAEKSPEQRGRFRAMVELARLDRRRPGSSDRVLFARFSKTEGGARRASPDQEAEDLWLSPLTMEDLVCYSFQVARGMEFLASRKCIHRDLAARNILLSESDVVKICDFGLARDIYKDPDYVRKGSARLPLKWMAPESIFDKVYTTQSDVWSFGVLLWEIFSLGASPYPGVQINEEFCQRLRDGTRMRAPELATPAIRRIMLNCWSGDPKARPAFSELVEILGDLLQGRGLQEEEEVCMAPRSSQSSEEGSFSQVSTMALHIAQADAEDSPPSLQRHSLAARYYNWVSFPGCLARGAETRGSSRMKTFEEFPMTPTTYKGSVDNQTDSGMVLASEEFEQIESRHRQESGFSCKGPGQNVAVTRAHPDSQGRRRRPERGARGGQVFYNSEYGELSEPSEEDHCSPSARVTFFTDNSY

binding result: binds
B1: recombinant human VEGF-D fragment (amino acids 90 to 203), non covalent dimer, expressed in E. coli (ligand, UniProt O43915 90-203, looked up)
chain: AATFYDIETLKVIDEEWQRTQCSPRETCVEVASELGKSTNTFFKPPCVNVFRCGGCCNEESLICMNTSTSYISKQLFEISVPLTSVPELVPVKVANHTGCKCLPTAPRHPYSII
notes: range 90-203; this protein was used for the osteoblast experiments; also called recombinant VEGF-D; VEGF-D fragment comprising aa 93-203; not shown: tag from vector pET-22b used for Ni2+ IMAC / His-TRAP purification
